According to patent US20170119913A1:

How the values were obtained:
[1] = target: SKCa channel
[2] = target: KV channel
[3] = target: neurotensin receptor 1 (NTR1), human, prepared from CHO cells recombinantly expressing the human receptor (human) (UniProt P30989)
[4] = target: NTR1 on HT29 or NTR1-expressing HEK293 cells (UniProt P30989); assay: cell-based or functional assay
[5] = target: sst (non-selective), somatostatin receptor; assay: Cerep ExpresSProfile radioligand competition binding, reference compound (agonist radioligand)

Sequence of NTR1 on HT29 or NTR1-expressing HEK293 cells (P30989 whole entry): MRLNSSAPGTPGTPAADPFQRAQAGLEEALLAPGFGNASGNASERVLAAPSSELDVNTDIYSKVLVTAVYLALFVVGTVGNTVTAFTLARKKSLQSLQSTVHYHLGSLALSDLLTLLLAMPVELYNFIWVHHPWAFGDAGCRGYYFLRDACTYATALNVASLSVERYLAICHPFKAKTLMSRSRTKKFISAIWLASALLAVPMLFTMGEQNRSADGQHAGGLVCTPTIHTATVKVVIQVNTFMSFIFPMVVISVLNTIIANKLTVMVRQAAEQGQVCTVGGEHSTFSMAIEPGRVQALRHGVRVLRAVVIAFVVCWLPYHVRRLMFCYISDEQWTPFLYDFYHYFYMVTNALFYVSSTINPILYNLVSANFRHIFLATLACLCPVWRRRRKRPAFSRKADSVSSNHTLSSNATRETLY
Sequence of neurotensin receptor 1 (NTR1), human, prepared from CHO cells recombinantly expressing the human receptor (human) (P30989 whole entry): as above

Row | Substance | IC50 [3] [nM] | Agonistic Effect EC50 [nM], functional Ca2+ mobilisation assay [4] [nM] | Antagonistic Effect IC50 [nM], functional Ca2+ mobilisation assay [4] [nM] | other results
1 | apamin (from UniProt P01500 28-45) (peptide) | – | – | – | Ki [1]: 8.4 pM
2 | alpha-dendrotoxin (from UniProt P00980 1-59) (peptide) | – | – | – | Ki [2]: 0.2 nM
3 | 1206-Glutar-Ttds-Lys(1206-Glutar-Ttds)-Ttds-Asn-Ala-Val-Pro-Asn-Leu-Arg-Gly-Asp-Leu-Gln-Val-Leu-Ala- (peptide) | 7.5 | > 50000 | 12 | –
4 | 1206-Glutar-Ttds3-Asn-Ala-Val-Pro-Asn-Leu-Arg-Gly-Asp-Leu-Gln-Val-Leu-Ala-Gln-Lys-Val-Ala-Arg-Thr-GA (peptide) | 9.9 | > 50000 | 38 | –
5 | somatostatin-14 (from UniProt P61278 103-116) (peptide) | – | – | – | Ki [5]: 0.11 nM
6 | 1206-Glutar-Ttds-Lys(DOTA)-Ttds-GABA-Asn-Ala-Val-Pro-Asn-Leu-Arg-Gly-Asp-Leu-Gln-Val-Leu-Ala-Gln-Lys (peptide) | 10 | > 50000 | 18 | –
